# Measured values: US20240369578A1 (NEURO BIO, published 2024)
# B1: T14 peptide (AChE-derived peptide, SEQ ID No:3) (peptide)
# peptide: AEFHRWSSYMVHWK
# notes: In the assays this was endogenous T14 in human brain tissue, CSF or plasma; Synthetic T14 served as the positive control and standard
# Biological target: T1, alpha-7 nicotinic receptor (human, UniProt P36544 23-502)
# T1 construct: Endogenous receptor in human brain homogenate, captured by biotinylated BTX on SA-donor beads in the AlphaLISA; also called alpha-7 receptor
# T1 sequence (P36544 23-502 limits assumed): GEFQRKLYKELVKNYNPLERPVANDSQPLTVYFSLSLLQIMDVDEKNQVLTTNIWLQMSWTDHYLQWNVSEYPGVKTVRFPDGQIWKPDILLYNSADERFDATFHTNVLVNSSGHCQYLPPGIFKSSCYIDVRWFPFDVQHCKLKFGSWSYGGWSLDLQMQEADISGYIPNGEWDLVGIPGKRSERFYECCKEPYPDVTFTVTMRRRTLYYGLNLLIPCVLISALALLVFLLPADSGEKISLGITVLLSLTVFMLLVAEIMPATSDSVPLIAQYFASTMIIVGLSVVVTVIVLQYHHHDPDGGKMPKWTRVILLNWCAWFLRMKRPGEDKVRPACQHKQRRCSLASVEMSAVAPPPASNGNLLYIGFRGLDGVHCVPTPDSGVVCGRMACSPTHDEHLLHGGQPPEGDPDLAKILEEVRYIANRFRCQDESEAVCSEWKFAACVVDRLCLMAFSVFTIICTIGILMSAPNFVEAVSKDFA
# Experiment: AlphaLISA of T14-alpha-7 complex in human hippocampal tissue lysate (biotinylated BTX on SA-donor beads, anti-T14 on acceptor beads)
# Protocol: Samples were extracted from homogenized human brain tissue using PerkinElmer lysis buffer and the protein concentration determined using the BCA method. For 100 mg tissue homogenization, 1 mL of lysis buffer was used. Five cycles of 40 second pulse, and 10 second breaks, on a shielded homogenizer were used for each sample. Samples were centrifuged at […], 15000 rpm (15 minutes) for supernatants; these were diluted in PerkinElmer Assay buffer and used to measure T14-alpha-7 nicotinic receptor complexes in the presence of NBP14 (concentrations 0.065 μM-900 μM) with AlphaLISA following the manufacturer's protocol. The antibodies were biotinylated BTX on SA-donor beads and anti-rabbit T14 on acceptor beads; results read in an AlphaLISA Reader.
binder,measurement,value
B1,binding result,binds
